Test results published in patent US20100143268A1, “Formulations for Delivery Via Pressurised Metered Dose Inhalers Comprising an Essential Oil as Suspension Stabiliser” (priority 2006, published 2010).

Tests used:
[1] = Tong et al, Pharm. Res. (2001) 18, 852-858; cited from earlier work
[2] = Integrity of insulin by GPC, HPLC, circular dichroism and fluorescence spectroscopy; type: physicochemical
Experimental: The formulations were also assessed for the integrity of insulin using gel permeation chromatography (GPC), high performance liquid chromatography (HPLC), circular dichroism and fluorescence spectroscopy.

Compound	aqueous solubility [1] [µg/mL]	chemical degradation of insulin during the formulation process ([2]; GPC and HPLC chromatograms compared to standard insulin)	secondary structures of insulin after processing ([2]; far-UV circular dichroism, from the nanoparticles after delivery from the pMDI vs unprocessed control)	tertiary structures of insulin after processing ([2]; near-UV CD, peak around 275 nm, confirmed by fluorescence spectra)
OCc1cc(C(O)CNCCCCCCOCCCCc2ccccc2)ccc1O (stereo not shown) [SX, Salmeterol Xinafoate]	66 to 81			
insulin		not chemically degraded	retained	retention
